The text below walks through data of patent US20120244164A1 (published 2012).

The labels stand for the following.
B1: A007901249 (VHH)
VHH: EVQLVESGGGLVQPGGSLRLSCAASGFTFDDYAIGWFRQAPGEERLGVSSISSTYGLTYYADSVKGRFTISSDNSKNTVYLQMNSLRPEDTAVYYCAATPIGLIGLDAYEYDYWGQGTLVTVSS
notes: 33H10 variant, 3xFLAG-His6 tagged; the entry holds the tag; also called monovalent form of A007901259
B2: A007901246 (VHH)
VHH: B1 VHH with T28A, L46E
notes: 33H10 variant, 3xFLAG-His6 tagged; the entry holds the tag; also called monovalent form of A007901256
B3: A007901250 (VHH)
VHH: B1 VHH with T28A
notes: 33H10 variant, 3xFLAG-His6 tagged; the entry holds the tag; also called monovalent form of A007901260
B4: A007901245 (VHH)
VHH: B1 VHH with L46E
notes: 33H10 variant, 3xFLAG-His6 tagged; the entry holds the tag; also called monovalent form of A007901255
B5: 04E09 (C50S/C100bG) (SEQ ID NO: 24) tagged with 3xFlag-His6 (VHH)
VHH: EVQLVESGGGLVQPGGSLRLSCAASGFILDYYAIGWFRQAPGKEREGVLSIDASDDITYYADSVKGRFTISRDNAKNTVYLQMNSLKPEDTGVYYCATPIGLSSSGLLEYDYDYWGQGTLVTVSS
B6: A007900184 (33H10-3xFLAG-His6) (VHH)
VHH: B1 VHH with P14A, L46E, D73S, S75A, S85N, R87K, G102E, L103R, I104L
notes: the entry holds the tag; also called A007900184 (wt)
B7: A007901252 (VHH)
VHH: B1 VHH with T28A, E43K
notes: 33H10 variant, 3xFLAG-His6 tagged; the entry holds the tag
B8: A007901253 (VHH)
VHH: B1 VHH with L46E, S63P
notes: as for B7
B9: A007901248 (VHH)
VHH: B1 VHH with T28A, E43K, L46E
notes: as for B7
B10: A007901247 (VHH)
VHH: B1 VHH with E43K, L46E
notes: as for B7
B11: A007901251 (VHH)
VHH: B1 VHH with E43K
notes: as for B7
B12: 04E09 (L49S) (SEQ ID NO: 23) tagged with 3xFlag-His6 (VHH)
VHH: B5 VHH with L49S, S50C, G106C
B13: A00790068 (VHH)
VHH: B5 VHH with S50C, A75S, K87R, G106C
notes: the entry as printed already holds the 3xFLAG-His6 tag; also called 04E09 (A74S, K83R, Q108L)
B14: A00790069 (VHH)
VHH: B5 VHH with S50C, A75S, K87R, G92A, G106C
notes: the entry as printed already holds the 3xFLAG-His6 tag; also called 04E09 (A74S, K83R, G88A, Q108L)
B15: A00790067 (VHH)
VHH: VQLVESGGGLVQPGGSLRLSCAASGFILDYYAIGWFRQAPGKEREGVLCIDASDDITYYADSVKGRFTISRDNAKNTVYLQMNSLKPEDTGVYYCATPIGLSSSCLLEYDYDYWGQGTLVTVSS
notes: the entry as printed already holds the 3xFLAG-His6 tag; also called 04E09 (Q108L)
B16: A007900748 (VHH)
VHH: B1 VHH with E43K, L46E, S85N, R87K, G102E, L103R, I104L
notes: 33H10 variant; the entry holds the 3xFLAG-His6 tag
B17: A007900746 (VHH)
VHH: B1 VHH with E43K, L46E, D73S, S85N, R87K, G102E, L103R, I104L
notes: as for B16
B18: A007900740 (VHH)
VHH: B1 VHH with L46E, S85N, R87K, G102E, L103R, I104L
notes: as for B16
B19: A007900741 (VHH)
VHH: B1 VHH with L46E, R87K, G102E, L103R, I104L
notes: as for B16
B20: A007900738 (VHH)
VHH: B1 VHH with L46E, D73S, S85N, R87K, G102E, L103R, I104L
notes: as for B16
B21: A007900752 (VHH)
VHH: B1 VHH with E43K, L46E, S72R, D73S, R87K, G102E, L103R, I104L
notes: as for B16
B22: A007900742 (VHH)
VHH: B1 VHH with L46E, S72R, D73S, S85N, R87K, G102E, L103R, I104L
notes: as for B16
B23: A007900750 (VHH)
VHH: B1 VHH with E43K, L46E, S72R, D73S, S85N, R87K, G102E, L103R, I104L
notes: as for B16
B24: A007900745 (VHH)
VHH: B1 VHH with L46E, S72R, R87K, G102E, L103R, I104L
notes: as for B16
B25: A007900747 (VHH)
VHH: B1 VHH with E43K, L46E, D73S, R87K, G102E, L103R, I104L
notes: as for B16
B26: A007900739 (VHH)
VHH: B1 VHH with L46E, D73S, R87K, G102E, L103R, I104L
notes: as for B16
B27: A007900749 (VHH)
VHH: B1 VHH with E43K, L46E, R87K, G102E, L103R, I104L
notes: as for B16
B28: A007900751 (VHH)
VHH: B1 VHH with E43K, L46E, S72R, S85N, R87K, G102E, L103R, I104L
notes: as for B16
B29: A007900753 (VHH)
VHH: B1 VHH with E43K, L46E, S72R, R87K, G102E, L103R, I104L
notes: as for B16
B30: A007900743 (VHH)
VHH: B1 VHH with L46E, S72R, S85N, R87K, G102E, L103R, I104L
notes: as for B16
B31: A007900744 (VHH)
VHH: VQLVESGGGLVQPGGSLRLSCAASGFTFDDYAIGWFRQAPGEEREGVSSISSTYGLTYYADSVKGRFTISRSNSKNTVYLQMNSLKPEDTAVYYCAATPIERLGLDAYEYDYWGQGTLVTVSS
notes: as for B16
B32: A00790105 tagged with 3xFlag-His6 (VHH)
VHH: B5 VHH with E1D, S50C, A75S, K87R, G92A, G106C
notes: also called 04E09 (E1D, A74S, K83R, G88A, Q108L)

Where a chain is given by its changes, count along the chain named. Names and notes keep the numbering of the source.

As usually defined, the IC50 is the concentration at which inhibition is half-maximal. By % inhibition is commonly meant the drop in the measured response relative to a control, in per cent. What is called Kd is the equilibrium constant for the complex coming apart. A word on the koff: it is the rate constant with which the complex falls apart. By kon is commonly meant the second-order rate constant of association.

T4 sequence (A0M8R7 25-1381 S170N/I621T limits assumed): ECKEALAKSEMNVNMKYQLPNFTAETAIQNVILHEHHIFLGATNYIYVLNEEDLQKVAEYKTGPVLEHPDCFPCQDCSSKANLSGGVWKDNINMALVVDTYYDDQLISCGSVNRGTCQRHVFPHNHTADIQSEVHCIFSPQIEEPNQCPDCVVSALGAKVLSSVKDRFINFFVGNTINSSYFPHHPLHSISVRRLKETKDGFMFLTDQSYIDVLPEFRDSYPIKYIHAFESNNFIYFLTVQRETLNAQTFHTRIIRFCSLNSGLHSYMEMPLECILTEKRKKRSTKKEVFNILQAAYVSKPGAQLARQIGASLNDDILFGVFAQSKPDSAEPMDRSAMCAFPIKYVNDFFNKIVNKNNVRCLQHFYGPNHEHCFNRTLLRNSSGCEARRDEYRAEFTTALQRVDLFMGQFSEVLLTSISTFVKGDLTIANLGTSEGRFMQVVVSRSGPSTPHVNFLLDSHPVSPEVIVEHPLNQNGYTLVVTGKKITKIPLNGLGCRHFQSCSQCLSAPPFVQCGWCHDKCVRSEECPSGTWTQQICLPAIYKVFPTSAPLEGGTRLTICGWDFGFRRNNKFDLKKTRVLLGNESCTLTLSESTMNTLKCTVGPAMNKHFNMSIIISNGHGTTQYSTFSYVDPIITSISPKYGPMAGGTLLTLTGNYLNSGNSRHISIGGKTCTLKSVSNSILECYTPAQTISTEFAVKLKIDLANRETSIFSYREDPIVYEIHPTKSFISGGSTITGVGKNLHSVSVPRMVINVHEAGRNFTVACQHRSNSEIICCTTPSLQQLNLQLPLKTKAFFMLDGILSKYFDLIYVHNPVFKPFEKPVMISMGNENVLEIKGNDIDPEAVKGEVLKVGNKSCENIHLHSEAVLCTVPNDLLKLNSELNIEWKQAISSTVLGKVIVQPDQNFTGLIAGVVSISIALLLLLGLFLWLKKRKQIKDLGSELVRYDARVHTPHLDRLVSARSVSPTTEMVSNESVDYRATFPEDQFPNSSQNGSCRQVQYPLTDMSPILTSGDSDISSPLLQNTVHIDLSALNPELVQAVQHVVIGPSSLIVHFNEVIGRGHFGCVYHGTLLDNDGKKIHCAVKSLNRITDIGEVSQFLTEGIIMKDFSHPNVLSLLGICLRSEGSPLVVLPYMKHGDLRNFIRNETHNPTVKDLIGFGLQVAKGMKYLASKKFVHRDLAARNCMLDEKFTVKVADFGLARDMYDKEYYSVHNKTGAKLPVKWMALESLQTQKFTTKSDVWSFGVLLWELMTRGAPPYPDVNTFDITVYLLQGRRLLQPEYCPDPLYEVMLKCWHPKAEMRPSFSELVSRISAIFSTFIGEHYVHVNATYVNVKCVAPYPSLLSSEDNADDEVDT

The target of the first test is T1, recombinant human c-Met/Fc chimera (R&D systems) (human).
T1 construct: R&D Systems 358-MT/CF, expressed in NS0 cells; also called hc-Met/Fc; hu c-Met/Fc
T1 sequence (chain, as listed by the source mutant limits assumed): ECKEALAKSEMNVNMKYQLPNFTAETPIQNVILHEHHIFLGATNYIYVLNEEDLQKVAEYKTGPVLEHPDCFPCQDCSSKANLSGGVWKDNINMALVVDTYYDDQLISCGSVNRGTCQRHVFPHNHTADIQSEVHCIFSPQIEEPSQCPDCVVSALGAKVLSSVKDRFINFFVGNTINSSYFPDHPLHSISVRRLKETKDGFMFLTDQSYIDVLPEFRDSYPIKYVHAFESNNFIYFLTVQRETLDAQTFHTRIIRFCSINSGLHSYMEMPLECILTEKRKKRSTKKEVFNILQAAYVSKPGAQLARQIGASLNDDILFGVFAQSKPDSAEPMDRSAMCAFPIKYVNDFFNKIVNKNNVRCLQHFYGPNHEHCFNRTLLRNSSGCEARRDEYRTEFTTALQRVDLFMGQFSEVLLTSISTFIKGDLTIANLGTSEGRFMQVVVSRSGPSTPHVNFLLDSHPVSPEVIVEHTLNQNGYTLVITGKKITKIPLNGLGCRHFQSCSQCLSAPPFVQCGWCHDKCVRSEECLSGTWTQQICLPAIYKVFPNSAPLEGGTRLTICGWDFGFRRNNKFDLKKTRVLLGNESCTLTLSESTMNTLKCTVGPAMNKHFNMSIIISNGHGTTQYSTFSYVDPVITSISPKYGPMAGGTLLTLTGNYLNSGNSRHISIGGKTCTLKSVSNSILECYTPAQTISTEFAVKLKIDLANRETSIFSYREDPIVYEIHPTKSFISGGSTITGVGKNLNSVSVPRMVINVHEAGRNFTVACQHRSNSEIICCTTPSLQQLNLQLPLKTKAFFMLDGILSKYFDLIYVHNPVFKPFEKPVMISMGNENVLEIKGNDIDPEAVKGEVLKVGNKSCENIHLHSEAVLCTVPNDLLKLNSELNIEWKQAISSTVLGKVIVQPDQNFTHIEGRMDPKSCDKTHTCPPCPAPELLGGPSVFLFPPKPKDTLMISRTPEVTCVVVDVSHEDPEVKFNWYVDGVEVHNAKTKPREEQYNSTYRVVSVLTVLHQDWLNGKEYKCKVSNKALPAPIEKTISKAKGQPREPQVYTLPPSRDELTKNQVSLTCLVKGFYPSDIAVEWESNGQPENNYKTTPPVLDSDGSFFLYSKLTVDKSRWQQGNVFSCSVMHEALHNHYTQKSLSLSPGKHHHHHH
Nature of the test: modified HGF-competition Alphascreen: 0.4 nM biotinylated HGF, 0.016 nM cMet/Fc. A general note: Alpha assays give light when donor and acceptor beads are brought close together.
B1: the IC50 turned out to be 0.043 nM.
Still for that read-out and setting: under B2 stands 0.048 nM; under B3, 0.035 nM; under B4, 0.091 nM.

The target in a further test is T2, recombinant human CTLA4/Fc chimera (R&D Systems) (human, UniProt P16410 37-162, limits assumed).
T2 construct: control protein; not shown: Fc part of a bought protein, not described
T2 sequence (P16410 37-162 limits assumed, change not shown): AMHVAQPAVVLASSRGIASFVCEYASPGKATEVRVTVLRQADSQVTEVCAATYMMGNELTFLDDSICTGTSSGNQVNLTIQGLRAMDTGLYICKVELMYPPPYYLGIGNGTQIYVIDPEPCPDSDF
Nature of the test: SPR (ProteOn), CTLA4/Fc captured on anti-human IgG(Fc). The protocol:
(§1) Anti-human IgG(Fc) antibody (GE Healthcare) was immobilized on a ProteOn GLC Sensorchip (BioRad) via amine coupling on two ligand lanes at densities of approximately 5300 RU and 2700 RU. […] Regeneration of the surface was performed by an 80 seconds injection of 3M magnesium chloride at 25 μl/min (component of kit BR-1008-39, GE Healthcare).
For B5, the binding result was “no binding”.

In the next test the target is T3, Human c-Met (human, UniProt P08581 25-1390). Nature of the test: cell-based or functional assay.
T3 sequence (P08581 25-1390 limits assumed): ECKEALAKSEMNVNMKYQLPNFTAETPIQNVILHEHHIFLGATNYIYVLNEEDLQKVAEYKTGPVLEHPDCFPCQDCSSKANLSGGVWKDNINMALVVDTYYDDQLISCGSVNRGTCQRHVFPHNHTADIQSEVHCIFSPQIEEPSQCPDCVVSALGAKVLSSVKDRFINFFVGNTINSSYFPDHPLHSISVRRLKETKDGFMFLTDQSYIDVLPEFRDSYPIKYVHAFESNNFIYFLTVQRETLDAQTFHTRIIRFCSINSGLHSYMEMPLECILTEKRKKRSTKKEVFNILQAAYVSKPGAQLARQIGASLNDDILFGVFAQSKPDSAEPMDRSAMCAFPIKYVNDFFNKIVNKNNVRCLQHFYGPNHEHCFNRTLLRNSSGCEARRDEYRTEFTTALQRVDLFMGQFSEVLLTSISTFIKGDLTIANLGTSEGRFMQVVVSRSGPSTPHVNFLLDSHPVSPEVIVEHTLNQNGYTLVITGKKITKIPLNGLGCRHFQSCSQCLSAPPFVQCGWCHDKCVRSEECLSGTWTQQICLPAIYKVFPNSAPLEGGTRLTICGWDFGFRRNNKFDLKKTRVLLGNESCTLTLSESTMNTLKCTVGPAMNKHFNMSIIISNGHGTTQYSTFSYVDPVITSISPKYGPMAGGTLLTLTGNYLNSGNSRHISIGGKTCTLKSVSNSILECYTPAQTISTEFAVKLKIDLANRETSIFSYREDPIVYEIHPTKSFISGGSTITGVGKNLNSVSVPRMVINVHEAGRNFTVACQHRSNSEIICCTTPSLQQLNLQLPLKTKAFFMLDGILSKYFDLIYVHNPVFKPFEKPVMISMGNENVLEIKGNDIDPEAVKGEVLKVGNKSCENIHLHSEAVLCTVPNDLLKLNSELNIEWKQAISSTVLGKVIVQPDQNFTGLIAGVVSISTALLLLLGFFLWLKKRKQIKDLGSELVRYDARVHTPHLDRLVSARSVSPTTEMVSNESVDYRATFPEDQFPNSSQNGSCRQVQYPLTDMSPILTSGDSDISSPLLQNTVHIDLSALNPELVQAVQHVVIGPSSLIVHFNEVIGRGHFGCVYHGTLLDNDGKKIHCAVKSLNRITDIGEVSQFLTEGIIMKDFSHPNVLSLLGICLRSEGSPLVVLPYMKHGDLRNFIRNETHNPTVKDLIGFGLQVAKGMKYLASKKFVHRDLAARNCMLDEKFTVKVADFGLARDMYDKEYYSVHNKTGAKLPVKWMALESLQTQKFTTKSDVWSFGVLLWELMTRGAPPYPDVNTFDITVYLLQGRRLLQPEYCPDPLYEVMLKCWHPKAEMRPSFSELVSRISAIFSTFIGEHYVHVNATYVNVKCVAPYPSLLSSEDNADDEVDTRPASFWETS
For the molecule B6, the “IC50, cell-based cMet phosphorylation assay” value stood at 79 nM.
The same measure, in the same setting: in the case of B7 it was 4.16 nM; in that of B8, 4.84 nM.
Regarding B1, the “IC50, cell-based cMet phosphorylation assay” value came out at 2.81 nM and the “IC50, cell-based proliferation assay, plate 2” value amounted to 1.93 nM.
Turning to B9, the “IC50, cell-based cMet phosphorylation assay” value came out at 11.5 nM.
B2: the “IC50, cell-based cMet phosphorylation assay” value stood at 3.44 nM and the “IC50, cell-based proliferation assay, plate 1” value (shortened to “IC50 … plate 1”) came out at 1.88 nM.
On to B3, for which the “IC50, cell-based cMet phosphorylation assay” value stood at 2.34 nM; the “IC50 … plate 1” value worked out at 2.29 nM; the “IC50, cell-based proliferation assay, plate 2” value amounted to 1.32 nM.
Turning to B4, the “IC50, cell-based cMet phosphorylation assay” value is 5.41 nM and the “IC50 … plate 1” value was 3.69 nM.
With B10, the “IC50, cell-based cMet phosphorylation assay” value was found to be 12.8 nM.
As for B11, the “IC50, cell-based cMet phosphorylation assay” value amounted to 4.98 nM.

Another test concerns the target T4, cynomolgus c-Met (cynomolgus monkey, UniProt A0M8R7 25-1381 (Papio anubis entry)).
T4 construct: also called cynomolgus monkey c-Met; cyno c-Met
Nature of the test: competition FACS: 0.5 nM biotinylated HGF on BAF3 cells with cynomolgus c-Met. As to the method:
Cells were analyzed on a FACSarray flow cytometer as described in earlier examples.
In the case of B12, the “% inhibition” value came out at 100% and the 50% inhibitory concentration (IC50) came to 0.61 nM.
B5: the “% inhibition” value was 100%, the half-maximal inhibitory concentration (IC50) was 20 nM and the “factor of decrease in potency against parental SEQ ID NO: 7” value was approximately 35 fold.

The next test deals with T1, recombinant human c-Met/Fc chimera (R&D …). Nature of the test: HGF-competition Alphascreen, EXP 1, second value.
Take B13: the concentration for half-maximal inhibition (IC50) is 0.072 nM.
Same read-out and setting: under B14 stands 0.046 nM; under B15, 0.069 nM.

For a further test the target is unchanged. Nature of the test: HGF-competition Alphascreen.
For the molecule B6, the concentration for half-maximal inhibition (IC50) was 0.78 nM.
For B16, the 50% inhibitory concentration (IC50) is 3.5 nM.
On the same count and under the same terms, under B17 stands 2.5 nM; under B18, 1.1 nM; under B19, 0.85 nM.
Regarding B20, the IC50 was 0.69 nM.
As to B21, the IC50 was found to be 31 nM.
As for B22, the IC50 was 8.3 nM.
For the molecule B23, the half-maximal inhibitory concentration (IC50) is 42 nM.
Same read-out and setting: in the case of B24 it was 18 nM; in that of B25, 2.5 nM.
For B26, the IC50 came out at 0.58 nM.
The same measure, in the same setting: in the case of B27 it was 3.4 nM; in that of B28, 100 nM.
Same read-out and setting: in the case of B29 it was 100 nM; in that of B30, 26 nM.
B31: the IC50 amounted to 11 nM.

Another test shares this target. Nature of the test: HGF-competition Alphascreen, EXP 2.
With B32, the IC50 was determined as 0.061 nM.
Still for that read-out and setting: in the case of B14 it was 0.071 nM.

The target is the same in the next test. Nature of the test: HGF-competition Alphascreen, EXP 1.
In the case of B13, the IC50 turned out to be 0.104 nM.
Same read-out and setting: under B14 stands 0.107 nM.
With B15, the half-maximal inhibitory concentration (IC50) was determined as 0.069 nM.

Another test concerns the target T3, Human c-Met. Nature of the test: cell-based or functional assay. This is another data set of the same source.
Regarding B13, the “IC50, c-Met phosphorylation, EXP 1” value is 1.96 nM.
As to B32, the “IC50, c-Met phosphorylation, EXP 2” value came out at 2.33 nM.
As for B14, the “IC50, c-Met phosphorylation, EXP 1” value worked out at 2.05 nM and the “IC50, c-Met phosphorylation, EXP 2” value worked out at 2.45 nM.
Take B15: the “IC50, c-Met phosphorylation, EXP 1” value stood at 2.21 nM.

The next test addresses T1, recombinant human c-Met/Fc chimera (R&D …). Nature of the test: HGF-competition Alphascreen. This is another data set of the same source.
With B6, the IC50 amounted to 0.61 nM.
The same measure, in the same setting: in the case of B7 it was 0.12 nM.
Same read-out and setting: under B8 stands 0.071 nM.
On the same count and under the same terms, in the case of B1 it was 0.08 nM; in that of B9, 0.17 nM; in that of B2, 0.089 nM.
Take B3: the IC50 was 0.081 nM.
The same measure, in the same setting: under B4 stands 0.092 nM.
The same measure, in the same setting: under B10 stands 0.27 nM.
Turning to B11, the half-maximal inhibitory concentration (IC50) amounted to 0.068 nM.

The target in a further test is T3, Human c-Met. Nature of the test: cell-based or functional assay. The source holds these as a separate data set.
For B12, the “IC50, HGF-dependent c-Met phosphorylation in A549 tumor cells” value came out at 3.1 nM.

A further test addresses T1, recombinant human c-Met/Fc chimera (R&D …). Nature of the test: SPR (ProteOn), c-Met/Fc captured on anti-human IgG(Fc). The protocol:
as §1
The experiment was performed as described in Example 5.
As for B5, the dissociation constant Kd was 4.09 nM, the koff was determined as 0.000788 s⁻¹ and the on-rate constant (kon) turned out to be 193000 M⁻¹ s⁻¹.
